Reference: PMC2756588

Columns and labels:
Test in all cases: SPOT array
Abp1, P15891 = target: T1, Abp1, P15891; details: median of control spots 935
T1 sequence (P15891 535-592, looked up): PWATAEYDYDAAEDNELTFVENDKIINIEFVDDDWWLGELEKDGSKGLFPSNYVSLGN

Bbc1, P47068 = target: T2, Bbc1, P47068; details: median of control spots 796
T2 sequence (P47068 1-78, looked up): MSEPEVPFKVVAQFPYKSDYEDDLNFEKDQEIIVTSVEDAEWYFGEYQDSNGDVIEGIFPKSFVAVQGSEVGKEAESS

Bem1-1, P29366 = details: median of control spots 4282
Bem1-1, P29366, sequence (P29366 55-141): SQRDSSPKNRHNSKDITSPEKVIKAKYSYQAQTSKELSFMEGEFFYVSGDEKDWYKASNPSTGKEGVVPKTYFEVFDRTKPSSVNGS

Bem1-2, P29366 = details: median of control spots 4347
Bem1-2, P29366, sequence (P29366 139-227): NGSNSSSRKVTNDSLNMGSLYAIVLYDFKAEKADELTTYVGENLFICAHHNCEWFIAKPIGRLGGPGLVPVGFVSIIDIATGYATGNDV

Boi1, P38041 = target: T3, Boi1, P38041; details: median of control spots 1162
T3 sequence (P38041 1-86, looked up): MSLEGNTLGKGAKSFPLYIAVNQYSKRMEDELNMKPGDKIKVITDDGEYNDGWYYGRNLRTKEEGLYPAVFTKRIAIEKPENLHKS

Boi2, P39969 = target: T4, Boi2, P39969; details: median of control spots 1161
T4 sequence (P39969 32-116, looked up): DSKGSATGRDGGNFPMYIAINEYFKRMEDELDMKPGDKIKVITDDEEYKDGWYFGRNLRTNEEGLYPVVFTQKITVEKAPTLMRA

Bud14, P27637 = target: T5, Bud14, P27637; details: median of control spots 956
T5 sequence (P27637 247-328, looked up): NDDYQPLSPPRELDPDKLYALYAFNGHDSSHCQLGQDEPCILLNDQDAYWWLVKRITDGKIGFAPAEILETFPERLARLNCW

Bzz1-1, P38822 = target: T6, Bzz1-1, P38822; details: median of control spots 4446
T6 sequence (P38822 478-572, looked up): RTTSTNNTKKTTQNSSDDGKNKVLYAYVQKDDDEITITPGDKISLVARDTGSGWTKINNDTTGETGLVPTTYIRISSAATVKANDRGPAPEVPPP

Bzz1-2, P38822 = target: T7, Bzz1-2, P38822; details: median of control spots 4538
T7 sequence (P38822 568-633, looked up): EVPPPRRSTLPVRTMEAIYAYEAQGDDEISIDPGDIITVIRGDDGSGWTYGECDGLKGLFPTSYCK

Cdc25, P04821 = target: T8, Cdc25, P04821; details: median of control spots 969
T8 sequence (P04821 50-136, looked up): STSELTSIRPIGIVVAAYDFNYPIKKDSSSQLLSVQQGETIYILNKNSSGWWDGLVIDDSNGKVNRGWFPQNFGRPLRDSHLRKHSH

Cyk3, Q07533 = target: T9, Cyk3, Q07533; details: median of control spots 1451
T9 sequence (Q07533 1-83, looked up): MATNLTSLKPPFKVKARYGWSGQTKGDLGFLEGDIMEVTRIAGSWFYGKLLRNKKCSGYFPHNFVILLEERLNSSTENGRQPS

Fus1, P11710 = target: T10, Fus1, P11710; details: median of control spots 1200
T10 sequence (P11710 432-512, looked up): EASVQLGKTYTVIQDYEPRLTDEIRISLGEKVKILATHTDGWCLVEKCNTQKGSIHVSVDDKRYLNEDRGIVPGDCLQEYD

GST = details: median of control spots 978
Hof1, Q05080 = target: T11, Hof1, Q05080; details: median of control spots 4086
T11 sequence (Q05080 590-669, looked up): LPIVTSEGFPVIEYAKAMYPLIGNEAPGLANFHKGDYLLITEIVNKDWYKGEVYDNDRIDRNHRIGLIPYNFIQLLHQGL

Hse1, P38753 = target: T12, Hse1, P38753; details: median of control spots 1727
T12 sequence (P38753 208-285, looked up): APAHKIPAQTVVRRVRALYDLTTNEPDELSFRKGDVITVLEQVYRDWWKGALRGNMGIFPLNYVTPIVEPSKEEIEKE

Lsb1, P53281 = target: T13, Lsb1, P53281; details: median of control spots 388
T13 sequence (P53281 45-122, looked up): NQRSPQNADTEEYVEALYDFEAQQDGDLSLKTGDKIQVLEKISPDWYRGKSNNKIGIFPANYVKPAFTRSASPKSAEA

Lsb3, P43603 = target: T14, Lsb3, P43603; details: median of control spots 406
T14 sequence (P43603 385-451, looked up): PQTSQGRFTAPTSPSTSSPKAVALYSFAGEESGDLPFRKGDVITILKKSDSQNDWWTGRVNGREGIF

Lsb4, P32793 = target: T15, Lsb4, P32793; details: median of control spots 397
T15 sequence (P32793 402-468, looked up): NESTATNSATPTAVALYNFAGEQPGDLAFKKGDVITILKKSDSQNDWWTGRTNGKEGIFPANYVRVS

Myo3, P36006 = details: median of control spots 468
Myo5, Q04439 = target: T16, Myo5, Q04439; details: median of control spots 471
T16 sequence (Q04439 1072-1160, looked up): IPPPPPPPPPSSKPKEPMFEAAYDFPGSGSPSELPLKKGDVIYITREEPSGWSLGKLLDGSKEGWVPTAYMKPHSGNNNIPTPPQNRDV

Nbp2, Q12163 = target: T17, Nbp2, Q12163; details: median of control spots 357
T17 sequence (Q12163 103-180, looked up): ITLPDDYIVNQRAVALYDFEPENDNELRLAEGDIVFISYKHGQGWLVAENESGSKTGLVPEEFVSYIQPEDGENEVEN

Pex13, P80667 = target: T18, Pex13, P80667; details: median of control spots 1341
T18 sequence (P80667 295-386, looked up): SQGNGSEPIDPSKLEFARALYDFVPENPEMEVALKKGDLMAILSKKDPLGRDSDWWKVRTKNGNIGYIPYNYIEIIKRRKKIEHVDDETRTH

Pin3, Q06449 = target: T19, Pin3, Q06449; details: median of control spots 2171
T19 sequence (Q06449 53-122, looked up): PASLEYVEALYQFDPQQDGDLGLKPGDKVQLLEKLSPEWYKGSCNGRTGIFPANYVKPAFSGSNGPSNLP

Rvs167, P39743 = details: median of control spots 2707
Rvs167, P39743, sequence (P39743 419-482): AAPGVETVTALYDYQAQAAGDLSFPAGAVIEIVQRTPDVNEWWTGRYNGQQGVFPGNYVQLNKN

Sho1, P40073 = details: median of control spots 1148
Sho1, P40073, sequence (P40073 287-367): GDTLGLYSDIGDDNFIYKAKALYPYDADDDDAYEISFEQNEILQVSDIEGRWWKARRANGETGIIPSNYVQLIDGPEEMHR

Sla1-2, P32790 = target: T20, Sla1-2, P32790; details: median of control spots 712
T20 sequence (P32790 60-140, looked up): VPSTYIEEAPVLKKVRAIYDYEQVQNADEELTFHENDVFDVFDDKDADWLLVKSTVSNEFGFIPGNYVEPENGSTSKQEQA

Sla1-3, P32790 = target: T21, Sla1-3, P32790; details: median of control spots 5475
T21 sequence (P32790 344-424, looked up): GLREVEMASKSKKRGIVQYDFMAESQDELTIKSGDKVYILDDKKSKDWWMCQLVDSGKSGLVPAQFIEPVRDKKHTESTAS

RLPAPPPPPRRGPAP
SPOT intensity (Abp1, P15891): 0 | SPOT intensity (Bbc1, P47068): 0 | SPOT intensity (Bem1-1, P29366): 0 | SPOT intensity (Bem1-2, P29366): 2 | SPOT intensity (Boi1, P38041): 0 | SPOT intensity (Boi2, P39969): 1 | SPOT intensity (Bud14, P27637): 3 | SPOT intensity (Bzz1-1, P38822): 31 | SPOT intensity (Bzz1-2, P38822): 9 | SPOT intensity (Cdc25, P04821): 0 | SPOT intensity (Cyk3, Q07533): 0 | SPOT intensity (Fus1, P11710): 0 | SPOT intensity (GST): 0 | SPOT intensity (Hof1, Q05080): 5 | SPOT intensity (Hse1, P38753): 1 | SPOT intensity (Lsb1, P53281): 0 | SPOT intensity (Lsb3, P43603): 0 | SPOT intensity (Lsb4, P32793): 0 | SPOT intensity (Myo3, P36006): 0 | SPOT intensity (Myo5, Q04439): 0 | SPOT intensity (Nbp2, Q12163): 1 | SPOT intensity (Pex13, P80667): 75 | SPOT intensity (Pin3, Q06449): 8 | SPOT intensity (Rvs167, P39743): 1500 | SPOT intensity (Sho1, P40073): 0 | SPOT intensity (Sla1-2, P32790): 0 | SPOT intensity (Sla1-3, P32790): 1

RPVPPPPPMRTTTEG
SPOT intensity (Abp1, P15891): 0 | SPOT intensity (Bbc1, P47068): 0 | SPOT intensity (Bem1-1, P29366): 3 | SPOT intensity (Bem1-2, P29366): 6 | SPOT intensity (Boi1, P38041): 0 | SPOT intensity (Boi2, P39969): 0 | SPOT intensity (Bud14, P27637): 0 | SPOT intensity (Bzz1-1, P38822): 19 | SPOT intensity (Bzz1-2, P38822): 664 | SPOT intensity (Cdc25, P04821): 0 | SPOT intensity (Cyk3, Q07533): 0 | SPOT intensity (Fus1, P11710): 1 | SPOT intensity (GST): 0 | SPOT intensity (Hof1, Q05080): 23 | SPOT intensity (Hse1, P38753): 9 | SPOT intensity (Lsb1, P53281): 0 | SPOT intensity (Lsb3, P43603): 0 | SPOT intensity (Lsb4, P32793): 0 | SPOT intensity (Myo3, P36006): 0 | SPOT intensity (Myo5, Q04439): 2 | SPOT intensity (Nbp2, Q12163): 0 | SPOT intensity (Pex13, P80667): 185 | SPOT intensity (Pin3, Q06449): 59 | SPOT intensity (Rvs167, P39743): 7510 | SPOT intensity (Sho1, P40073): 2 | SPOT intensity (Sla1-2, P32790): 0 | SPOT intensity (Sla1-3, P32790): 2

SGVRLPAPPPPPRRG
SPOT intensity (Abp1, P15891): 0 | SPOT intensity (Bbc1, P47068): 0 | SPOT intensity (Bem1-1, P29366): 3 | SPOT intensity (Bem1-2, P29366): 0 | SPOT intensity (Boi1, P38041): 0 | SPOT intensity (Boi2, P39969): 1 | SPOT intensity (Bud14, P27637): 3 | SPOT intensity (Bzz1-1, P38822): 6 | SPOT intensity (Bzz1-2, P38822): 20 | SPOT intensity (Cdc25, P04821): 0 | SPOT intensity (Cyk3, Q07533): 1 | SPOT intensity (Fus1, P11710): 0 | SPOT intensity (GST): 0 | SPOT intensity (Hof1, Q05080): 633 | SPOT intensity (Hse1, P38753): 0 | SPOT intensity (Lsb1, P53281): 0 | SPOT intensity (Lsb3, P43603): 0 | SPOT intensity (Lsb4, P32793): 0 | SPOT intensity (Myo3, P36006): 0 | SPOT intensity (Myo5, Q04439): 0 | SPOT intensity (Nbp2, Q12163): 0 | SPOT intensity (Pex13, P80667): 55 | SPOT intensity (Pin3, Q06449): 4 | SPOT intensity (Rvs167, P39743): 3630 | SPOT intensity (Sho1, P40073): 0 | SPOT intensity (Sla1-2, P32790): 3 | SPOT intensity (Sla1-3, P32790): 0

RNNRPVPPPPPMRTT
SPOT intensity (Abp1, P15891): 0 | SPOT intensity (Bbc1, P47068): 0 | SPOT intensity (Bem1-1, P29366): 5 | SPOT intensity (Bem1-2, P29366): 0 | SPOT intensity (Boi1, P38041): 0 | SPOT intensity (Boi2, P39969): 1 | SPOT intensity (Bud14, P27637): 0 | SPOT intensity (Bzz1-1, P38822): 6 | SPOT intensity (Bzz1-2, P38822): 233 | SPOT intensity (Cdc25, P04821): 0 | SPOT intensity (Cyk3, Q07533): 2 | SPOT intensity (Fus1, P11710): 0 | SPOT intensity (GST): 0 | SPOT intensity (Hof1, Q05080): 0 | SPOT intensity (Hse1, P38753): 7 | SPOT intensity (Lsb1, P53281): 0 | SPOT intensity (Lsb3, P43603): 0 | SPOT intensity (Lsb4, P32793): 0 | SPOT intensity (Myo3, P36006): 0 | SPOT intensity (Myo5, Q04439): 1 | SPOT intensity (Nbp2, Q12163): 0 | SPOT intensity (Pex13, P80667): 201 | SPOT intensity (Pin3, Q06449): 31 | SPOT intensity (Rvs167, P39743): 1870 | SPOT intensity (Sho1, P40073): 0 | SPOT intensity (Sla1-2, P32790): 1 | SPOT intensity (Sla1-3, P32790): 0
